# According to article PMC9259988, “Heterologous Expression and Evaluation of Novel Plasmodium falciparum Transmission Blocking Vaccine Candidates” (Frontiers in Immunology, 2022):
# B1: Pf3D7_1143700 fragment 1-100 expressed in Drosophila melanogaster S2 cells (TBC1^DM) (domain or fragment, Plasmodium falciparum 3D7, UniProt Q8IHS8 1-100, looked up)
# chain: MKVKIGSFENFLERLNNIKEEDIIINDENTEEMFSSFLITFYKENEGRYTIQEQEYINNLLNILINKIRDNKNGRNFFSNLLCIHFKSITPYFINVKLKD
# notes: Conserved Plasmodium protein, unknown function, PF3D7_1143700, Plasmodium falciparum 3D7 genome (PlasmoDB), residues 1-100; codon-optimised synthetic gene; secreted; the dimer is held by a disulphide bond
# Target: the molecule itself
# Test: non-reducing and reducing SDS-PAGE; purified protein run non-reduced and reduced (10 mM dithiothreitol) on a 4-20% Bis-Tris gel, Coomassie-type staining
protein,measurement,value
B1,stoichiometry N,2
